Test results: IntAct's records for PubMed 31515488

B1: UDP-galactose translocator (Homo sapiens), P78381 (parent)
chain: MAAVGAGGSTAAPGPGAVSAGALEPGTASAAHRRLKYISLAVLVVQNASLILSIRYARTLPGDRFFATTAVVMAEVLKGLTCLLLLFAQKRGNVKHLVLFLHEAVLVQYVDTLKLAVPSLIYTLQNNLQYVAISNLPAATFQVTYQLKILTTALFSVLMLNRSLSRLQWASLLLLFTGVAIVQAQQAGGGGPRPLDQNPGAGLAAVVASCLSSGFAGVYFEKILKGSSGSVWLRNLQLGLFGTALGLVGLWWAEGTAVATRGFFFGYTPAVWGVVLNQAFGGLLVAVVVKYADNILKGFATSLSIVLSTVASIRLFGFHVDPLFALGAGLVIGAVYLYSLPRGAAKAIASASASASGPCVHQQPPGQPPPPQLSSHRGDLITEPFLPKLLTKVKGS
B2: Isoform 1 of Segment polarity protein dishevelled homolog DVL-3 (Homo sapiens), Q92997-1 (parent)
chain: MGETKIIYHLDGQETPYLVKLPLPAERVTLADFKGVLQRPSYKFFFKSMDDDFGVVKEEISDDNAKLPCFNGRVVSWLVSAEGSHPDPAPFCADNPSELPPPMERTGGIGDSRPPSFHPHAGGGSQENLDNDTETDSLVSAQRERPRRRDGPEHATRLNGTAKGERRREPGGYDSSSTLMSSELETTSFFDSDEDDSTSRFSSSTEQSSASRLMRRHKRRRRKQKVSRIERSSSFSSITDSTMSLNIITVTLNMEKYNFLGISIVGQSNERGDGGIYIGSIMKGGAVAADGRIEPGDMLLQVNEINFENMSNDDAVRVLREIVHKPGPITLTVAKCWDPSPRGCFTLPRSEPIRPIDPAAWVSHTAAMTGTFPAYGMSPSLSTITSTSSSITSSIPDTERLDDFHLSIHSDMAAIVKAMASPESGLEVRDRMWLKITIPNAFIGSDVVDWLYHNVEGFTDRREARKYASNLLKAGFIRHTVNKITFSEQCYYIFGDLCGNMANLSLHDHDGSSGASDQDTLAPLPHPGAAPWPMAFPYQYPPPPHPYNPHPGFPELGYSYGGGSASSQHSEGSRSSGSNRSGSDRRKEKDPKAGDSKSGGSGSESDHTTRSSLRGPRERAPSERSGPAASEHSHRSHHSLASSLRSHHTHPSYGPPGVPPLYGPPMLMMPPPPAAMGPPGAPPGRDLASVPPELTASRQSFRMAMGNPSEFFVDVM
B3: Proline-rich protein 3 (Homo sapiens), P79522 (parent)
chain: MPKRKKQNHHQPPTQQQPPLPEREETGDEEDGSPIGPPSLLGPPPMANGKPGDPKSALHRGPPGSRGPLIPPLLSLPPPPWGRGPIRRGLGPRSSPYGRGWWGVNAEPPFPGPGHGGPTRGSFHKEQRNPRRLKSWSLIKNTCPPKDDPQVMEDKSDRPVCRHFAKKGHCRYEDLCAFYHPGVNGPPL
partner: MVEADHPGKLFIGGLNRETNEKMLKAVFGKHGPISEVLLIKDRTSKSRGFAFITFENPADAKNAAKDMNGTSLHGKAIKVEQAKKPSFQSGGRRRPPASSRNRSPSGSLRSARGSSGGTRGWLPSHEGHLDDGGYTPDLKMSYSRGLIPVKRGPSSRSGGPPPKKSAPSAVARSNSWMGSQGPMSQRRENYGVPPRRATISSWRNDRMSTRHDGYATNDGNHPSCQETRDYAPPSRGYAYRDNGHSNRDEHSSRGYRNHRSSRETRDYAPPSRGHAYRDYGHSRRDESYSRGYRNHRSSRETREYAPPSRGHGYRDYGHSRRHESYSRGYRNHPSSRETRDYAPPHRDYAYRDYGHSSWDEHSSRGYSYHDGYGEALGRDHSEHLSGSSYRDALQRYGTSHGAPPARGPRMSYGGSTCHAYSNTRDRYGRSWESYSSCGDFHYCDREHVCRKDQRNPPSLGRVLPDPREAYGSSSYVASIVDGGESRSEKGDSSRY
B4: Microtubule-associated tumor suppressor candidate 2 (Homo sapiens), Q5JR59-3 (parent)
chain: MGHCCCKPYNCLQCLDKTNESALVKEKELSIELANIRDEVAFHTAKCEKLQKEKEELERRFEDEVKRLGWQQQAELQELEERLQLQFEAEMARLQEEHGDQLLSIRCQHQEQVEDLTASHDAALLEMENNHTVAITILQDDHDHKVQELMSTHELEKKELEENFEKLRLSLQDQVDTLTFQSQSLRDRARRFEEALRKNTEEQLEIALAPYQHLEEDMKSLKQVLEMKNQQIHEQEKKILELEKLAEKNIILEEKIQVLQQQNEDLKARIDQNTVVTRQLSEENANLQEYVEKETQEKKRLSRTNEELLWKLQTGDPTSPIKLSPTSPVYRGSSSGPSSPARVSTTPR
partner: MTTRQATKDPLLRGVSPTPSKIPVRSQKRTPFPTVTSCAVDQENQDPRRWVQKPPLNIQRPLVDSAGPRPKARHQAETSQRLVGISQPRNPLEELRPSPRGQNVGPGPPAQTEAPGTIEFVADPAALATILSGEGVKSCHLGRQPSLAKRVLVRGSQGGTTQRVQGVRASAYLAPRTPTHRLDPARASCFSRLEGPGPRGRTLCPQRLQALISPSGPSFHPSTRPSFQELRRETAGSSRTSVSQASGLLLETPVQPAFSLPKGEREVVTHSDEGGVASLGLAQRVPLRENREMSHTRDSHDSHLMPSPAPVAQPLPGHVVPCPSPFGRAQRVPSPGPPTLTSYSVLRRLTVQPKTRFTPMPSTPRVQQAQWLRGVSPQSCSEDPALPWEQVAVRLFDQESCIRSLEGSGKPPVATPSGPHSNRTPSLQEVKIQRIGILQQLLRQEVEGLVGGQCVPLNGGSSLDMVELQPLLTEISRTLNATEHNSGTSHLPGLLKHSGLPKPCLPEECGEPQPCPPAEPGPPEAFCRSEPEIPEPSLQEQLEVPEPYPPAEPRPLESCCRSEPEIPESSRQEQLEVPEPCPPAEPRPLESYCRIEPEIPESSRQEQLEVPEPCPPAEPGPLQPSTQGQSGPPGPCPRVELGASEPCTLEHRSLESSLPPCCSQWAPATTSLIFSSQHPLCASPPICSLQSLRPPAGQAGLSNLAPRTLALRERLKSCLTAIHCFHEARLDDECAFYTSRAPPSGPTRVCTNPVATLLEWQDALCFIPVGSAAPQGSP
B5: THAP domain-containing protein 8 (Homo sapiens), Q8NA92 (parent)
chain: MPKYCRAPNCSNTAGRLGADNRPVSFYKFPLKDGPRLQAWLQHMGCEHWVPSCHQHLCSEHFTPSCFQWRWGVRYLRPDAVPSIFSRGPPAKSQRRTRSTQKPVSPPPPLQKNTPLPQSPAIPVSGPVRLVVLGPTSGSPKTVATMLLTPLAPAPTPERSQPEVPAQQAQTGLGPVLGALQRRVRRLQRCQERHQAQLQALERLAQQLHGESLLARARRGLQRLTTAQTLGPEESQTFTIICGGPDIAMVLAQDPAPATVDAKPELLDTRIPSA
B6: Protein N-lysine methyltransferase METTL21A (Homo sapiens), Q8WXB1 (parent)
chain: MALVPYEETTEFGLQKFHKPLATFSFANHTIQIRQDWRHLGVAAVVWDAAIVLSTYLEMGAVELRGRSAVELGAGTGLVGIVAALLGAHVTITDRKVALEFLKSNVQANLPPHIQTKTVVKELTWGQNLGSFSPGEFDLILGADIIYLEETFTDLLQTLEHLCSNHSVILLACRIRYERDNNFLAMLERQFTVRKVHYDPEKDVHIYEAQKRNQKEDL
B7: Notch homolog 2 N-terminal-like protein A (Homo sapiens), Q7Z3S9 (parent)
chain: MCVTYHNGTGYCKCPEGFLGEYCQHRDPCEKNRCQNGGTCVAQAMLGKATCRCASGFTGEDCQYSTSHPCFVSRPCLNGGTCHMLSRDTYECTCQVGFTGKECQWTDACLSHPCANGSTCTTVANQFSCKCLTGFTGQKCETDVNECDIPGHCQHGGTCLNLPGSYQCQCLQGFTGQYCDSLYVPCAPSPCVNGGTCRQTGDFTFECNCLPETVRRGTELWERDREVWNGKEHDEN
partner: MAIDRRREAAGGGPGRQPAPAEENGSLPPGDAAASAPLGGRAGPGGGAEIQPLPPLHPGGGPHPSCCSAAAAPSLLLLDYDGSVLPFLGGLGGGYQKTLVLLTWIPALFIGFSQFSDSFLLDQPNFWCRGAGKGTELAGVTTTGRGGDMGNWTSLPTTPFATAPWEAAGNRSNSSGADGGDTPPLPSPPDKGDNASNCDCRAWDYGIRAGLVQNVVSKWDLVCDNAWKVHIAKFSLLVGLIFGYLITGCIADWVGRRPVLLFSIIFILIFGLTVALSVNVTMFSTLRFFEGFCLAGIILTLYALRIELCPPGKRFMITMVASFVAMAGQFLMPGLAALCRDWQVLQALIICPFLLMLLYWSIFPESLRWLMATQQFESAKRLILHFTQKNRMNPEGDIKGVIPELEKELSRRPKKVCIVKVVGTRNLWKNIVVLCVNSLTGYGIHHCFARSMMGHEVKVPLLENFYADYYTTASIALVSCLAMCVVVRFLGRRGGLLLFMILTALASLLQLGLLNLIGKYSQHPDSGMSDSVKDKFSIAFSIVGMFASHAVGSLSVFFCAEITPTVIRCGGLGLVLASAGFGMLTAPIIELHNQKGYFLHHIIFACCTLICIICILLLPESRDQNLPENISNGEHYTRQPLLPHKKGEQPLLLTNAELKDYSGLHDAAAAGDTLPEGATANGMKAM
B8: Microtubule-associated tumor suppressor candidate 2 (Homo sapiens), Q5JR59-3 (parent)
chain: B4 chain
partner: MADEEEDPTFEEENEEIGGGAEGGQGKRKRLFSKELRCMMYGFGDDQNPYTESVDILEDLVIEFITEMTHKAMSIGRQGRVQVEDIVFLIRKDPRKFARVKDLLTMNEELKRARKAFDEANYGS

Variants of: B1
Conditions: with pls1_human PLSCR1, O15162
pls1_human PLSCR1, O15162, sequence (O15162 whole entry): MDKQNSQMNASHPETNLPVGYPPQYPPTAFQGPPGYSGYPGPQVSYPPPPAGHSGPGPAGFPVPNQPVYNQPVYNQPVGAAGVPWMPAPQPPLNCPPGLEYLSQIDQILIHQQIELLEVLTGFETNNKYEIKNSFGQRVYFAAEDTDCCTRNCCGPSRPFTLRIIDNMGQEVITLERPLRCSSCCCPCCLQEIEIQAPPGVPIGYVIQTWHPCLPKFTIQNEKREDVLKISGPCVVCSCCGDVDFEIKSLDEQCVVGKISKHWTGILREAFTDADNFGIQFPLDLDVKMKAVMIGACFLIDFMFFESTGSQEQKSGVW
A57T was tested, and the “effect of a mutation on the interaction” value was “with no effect”.

Variants of: B2
Conditions: with kat7_human KAT7, O95251
kat7_human KAT7, O95251, sequence (O95251 whole entry): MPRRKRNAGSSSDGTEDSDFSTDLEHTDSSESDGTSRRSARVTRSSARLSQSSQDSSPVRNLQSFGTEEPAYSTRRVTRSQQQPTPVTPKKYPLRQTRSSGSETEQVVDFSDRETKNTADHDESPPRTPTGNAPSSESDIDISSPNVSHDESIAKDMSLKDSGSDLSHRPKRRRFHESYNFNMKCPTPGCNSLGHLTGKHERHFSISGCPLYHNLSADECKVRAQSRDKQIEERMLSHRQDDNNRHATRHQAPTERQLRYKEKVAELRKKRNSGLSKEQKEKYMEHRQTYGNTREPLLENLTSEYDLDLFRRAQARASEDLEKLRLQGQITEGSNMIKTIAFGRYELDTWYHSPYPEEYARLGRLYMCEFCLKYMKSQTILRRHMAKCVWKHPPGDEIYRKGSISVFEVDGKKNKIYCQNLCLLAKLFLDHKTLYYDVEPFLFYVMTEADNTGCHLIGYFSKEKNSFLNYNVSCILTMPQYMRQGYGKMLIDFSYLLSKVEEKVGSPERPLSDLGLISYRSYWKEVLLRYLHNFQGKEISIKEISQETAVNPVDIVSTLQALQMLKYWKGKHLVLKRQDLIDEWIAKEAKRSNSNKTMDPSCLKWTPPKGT
In the case of R216T, the “effect of a mutation on the interaction” value is reported as “with no effect”.

Variants of: B3
Conditions: with rby1f_human RBMY1F
With R87W the “effect of a mutation on the interaction” value was “with no effect”.

Variants of: B4
Conditions: with troap_human TROAP
A89V was tested, and the “effect of a mutation on the interaction” value was “with no effect”.

Variants of: B5
Conditions: with tfp11_human TFIP11, Q9UBB9
tfp11_human TFIP11, Q9UBB9, sequence (Q9UBB9 whole entry): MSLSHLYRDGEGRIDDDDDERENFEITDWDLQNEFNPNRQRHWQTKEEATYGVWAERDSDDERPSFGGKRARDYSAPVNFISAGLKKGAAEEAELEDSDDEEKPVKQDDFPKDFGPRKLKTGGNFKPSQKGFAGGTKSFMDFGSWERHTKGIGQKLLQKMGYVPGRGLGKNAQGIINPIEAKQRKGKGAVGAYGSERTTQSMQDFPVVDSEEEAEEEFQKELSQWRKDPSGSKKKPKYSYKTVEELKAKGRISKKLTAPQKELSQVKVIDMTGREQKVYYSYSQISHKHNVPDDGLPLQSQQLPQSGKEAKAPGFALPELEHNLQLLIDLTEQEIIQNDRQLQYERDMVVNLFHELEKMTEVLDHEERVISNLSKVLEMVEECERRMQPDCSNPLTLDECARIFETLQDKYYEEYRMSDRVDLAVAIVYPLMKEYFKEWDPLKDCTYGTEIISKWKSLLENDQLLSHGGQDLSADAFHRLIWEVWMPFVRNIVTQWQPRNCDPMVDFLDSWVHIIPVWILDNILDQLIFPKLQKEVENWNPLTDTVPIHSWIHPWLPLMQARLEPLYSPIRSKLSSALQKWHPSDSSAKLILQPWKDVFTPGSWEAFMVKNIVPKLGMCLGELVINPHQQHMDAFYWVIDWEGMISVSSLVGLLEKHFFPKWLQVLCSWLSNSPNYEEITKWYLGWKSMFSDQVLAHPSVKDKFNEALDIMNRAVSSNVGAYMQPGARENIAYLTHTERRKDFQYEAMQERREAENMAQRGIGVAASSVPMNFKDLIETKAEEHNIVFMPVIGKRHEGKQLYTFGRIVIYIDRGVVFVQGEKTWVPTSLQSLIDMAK
With P157S the “effect of a mutation on the interaction” value was “with no effect”. R189W was tested, and the “effect of a mutation on the interaction” value was “with no effect”. For R185Q, the “effect of a mutation on the interaction” value was “with no effect”.

Variants of: B6
Conditions: with FAM200C
In the case of A209P, the “effect of a mutation on the interaction” value is reported as “disrupting interaction strength”.

Variants of: B7
Conditions: with SLC22A23, A1A5C7
With R74Q the “effect of a mutation on the interaction” value was “with no effect”. For A115T, the “effect of a mutation on the interaction” value was “with no effect”.

Variants of: B8
Conditions: with taf13_human TAF13, Q15543
A89V was tested, and the “effect of a mutation on the interaction” value was “with no effect”.
